In US20240116985A1 (published 2024):
Starred links: 1 amine or outer side, 2 acyl side, 3 side chain; linkers in the order of their positions; H or OH if unused. Positions of bridges follow the written chain, without caps; N, C: chain ends. Non-standard residues stand in square brackets, D forms with d. Primed or numbered codes have the meaning given here. (CCpCO2H)TriAzDap = (S)-1-(1-(2-amino-2-carboxyethyl)-1H-1,2,3-triazol-4-yl)cyclopropane-1-carboxylic acid, O=C([C@H](Cn1cc(C2(C(=O)[*:3])CC2)nn1)N[*:1])[*:2]; PyrS2″ = (S)-3-amino-1-((pent-4-en-1-yloxy)carbonyl)pyrrolidine-3-carboxylic acid (stapling residue), C=CCCCOC(=O)N1CC[C@@](N[*:1])(C(=O)[*:2])C1; B5(16) = 2-amino-2-(pent-4-en-1-yl)hept-6-enoic acid = 2,2-bis(4-pentenyl)glycine (stitching residue), C=CCCCC(CCCC=C)(N[*:1])C(=O)[*:2]; B5(5) = 2,2-bis(4-pentenyl)glycine, 2-amino-2-(pent-4-en-1-yl)hept-6-enoic acid (stitching residue), C=CCCCC(CCCC=C)(N[*:1])C(=O)[*:2]; Phe(2-Cl) = N[C@@H](Cc1ccccc1Cl)C(=O)O; Bta = N[C@@H](Cc1csc2ccccc12)C(=O)O; αAllylPro = C=CC[C@@]1(C(=O)O)CCCN1; tBuAla = CC(C)(C)C[C@H](N)C(=O)O; 3Thi = N[C@@H](Cc1ccsc1)C(=O)O

T1: B-cat-Halo (beta-catenin HaloTag fusion expressed in HEK293 cells) (Homo sapiens (Human), UniProt P35222 1-781)
T1 sequence: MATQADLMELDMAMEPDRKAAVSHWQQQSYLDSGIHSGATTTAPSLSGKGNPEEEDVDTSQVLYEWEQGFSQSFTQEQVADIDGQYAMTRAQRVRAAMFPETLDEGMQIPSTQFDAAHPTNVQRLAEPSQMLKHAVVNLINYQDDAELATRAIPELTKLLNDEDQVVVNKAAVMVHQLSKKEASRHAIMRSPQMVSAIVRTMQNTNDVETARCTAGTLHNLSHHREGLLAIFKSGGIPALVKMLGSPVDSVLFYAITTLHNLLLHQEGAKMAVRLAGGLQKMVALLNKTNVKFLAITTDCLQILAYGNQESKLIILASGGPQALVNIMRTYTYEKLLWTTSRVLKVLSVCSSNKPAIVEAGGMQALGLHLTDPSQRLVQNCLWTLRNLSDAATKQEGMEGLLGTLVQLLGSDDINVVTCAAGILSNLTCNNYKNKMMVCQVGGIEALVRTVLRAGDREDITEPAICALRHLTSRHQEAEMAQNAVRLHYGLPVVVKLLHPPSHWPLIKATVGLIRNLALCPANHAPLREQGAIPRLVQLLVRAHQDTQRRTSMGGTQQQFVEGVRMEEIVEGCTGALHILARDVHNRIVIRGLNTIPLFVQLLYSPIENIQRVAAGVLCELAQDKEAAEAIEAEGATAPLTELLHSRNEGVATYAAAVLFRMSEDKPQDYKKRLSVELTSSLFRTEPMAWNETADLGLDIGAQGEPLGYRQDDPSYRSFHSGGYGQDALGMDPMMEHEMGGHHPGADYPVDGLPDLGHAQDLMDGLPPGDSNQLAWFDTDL

T2: beta-catenin in DLD1 TCF/LEF luciferase reporter cells (UniProt P35222 1-781)
T2 sequence (looked up): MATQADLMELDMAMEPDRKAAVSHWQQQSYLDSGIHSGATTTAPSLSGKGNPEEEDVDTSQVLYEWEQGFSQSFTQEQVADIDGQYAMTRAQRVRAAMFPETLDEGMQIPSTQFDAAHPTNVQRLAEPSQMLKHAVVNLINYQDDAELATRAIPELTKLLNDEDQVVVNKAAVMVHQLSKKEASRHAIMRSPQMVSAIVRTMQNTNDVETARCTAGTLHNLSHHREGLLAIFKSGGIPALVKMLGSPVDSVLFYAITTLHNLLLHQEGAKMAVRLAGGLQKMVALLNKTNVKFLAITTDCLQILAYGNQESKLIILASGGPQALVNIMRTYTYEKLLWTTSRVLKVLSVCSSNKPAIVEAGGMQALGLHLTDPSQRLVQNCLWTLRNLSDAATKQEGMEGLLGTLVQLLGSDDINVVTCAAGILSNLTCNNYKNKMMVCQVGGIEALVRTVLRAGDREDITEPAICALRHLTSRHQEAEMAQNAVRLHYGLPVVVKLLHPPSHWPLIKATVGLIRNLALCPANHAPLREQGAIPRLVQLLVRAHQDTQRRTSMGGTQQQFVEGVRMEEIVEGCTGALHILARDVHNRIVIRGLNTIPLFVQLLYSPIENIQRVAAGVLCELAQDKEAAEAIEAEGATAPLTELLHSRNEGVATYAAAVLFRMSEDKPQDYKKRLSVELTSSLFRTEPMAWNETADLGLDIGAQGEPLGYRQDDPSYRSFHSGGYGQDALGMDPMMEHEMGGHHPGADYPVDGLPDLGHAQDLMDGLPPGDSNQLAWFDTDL

T3: beta-catenin in DLD1 TCF/LEF luciferase reporter cells (UniProt P35222 1-781)
T3 sequence (looked up): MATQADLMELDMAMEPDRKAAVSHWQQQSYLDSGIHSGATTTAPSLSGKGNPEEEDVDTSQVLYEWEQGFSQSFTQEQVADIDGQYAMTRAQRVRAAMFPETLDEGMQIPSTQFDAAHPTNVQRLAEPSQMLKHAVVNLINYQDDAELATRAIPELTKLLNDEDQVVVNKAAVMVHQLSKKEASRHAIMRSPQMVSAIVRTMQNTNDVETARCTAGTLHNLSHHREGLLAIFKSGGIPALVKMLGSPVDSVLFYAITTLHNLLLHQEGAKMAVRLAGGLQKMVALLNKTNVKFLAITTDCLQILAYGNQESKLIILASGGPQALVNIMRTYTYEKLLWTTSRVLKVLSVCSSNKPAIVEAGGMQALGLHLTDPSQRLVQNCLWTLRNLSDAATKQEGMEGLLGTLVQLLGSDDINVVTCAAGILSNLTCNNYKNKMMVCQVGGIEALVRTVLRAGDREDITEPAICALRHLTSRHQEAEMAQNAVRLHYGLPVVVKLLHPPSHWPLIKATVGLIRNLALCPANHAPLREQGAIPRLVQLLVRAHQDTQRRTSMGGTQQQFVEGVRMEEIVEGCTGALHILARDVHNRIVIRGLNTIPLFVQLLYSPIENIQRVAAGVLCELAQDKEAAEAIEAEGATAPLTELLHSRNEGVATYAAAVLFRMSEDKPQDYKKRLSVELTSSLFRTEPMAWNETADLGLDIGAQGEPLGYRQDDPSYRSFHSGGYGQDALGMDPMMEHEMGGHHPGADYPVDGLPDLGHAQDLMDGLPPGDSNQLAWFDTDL


Columns and labels:
Experiment in all cases: cell-based or functional assay
[1] = biological target: T1, B-cat-Halo (beta-catenin HaloTag fusion …)
[2] = biological target: T2, beta-catenin in DLD1 TCF/LEF luciferase …
[3] = biological target: T3, beta-catenin in DLD1 TCF/LEF luciferase …; remark: listed apart in the source
[4] = biological target: B-cat-Halo (beta-catenin HaloTag construct expressed in HEK293 cells) (UniProt P35222 1-781)

Binder | NanoBRET Abs IC50 [1] [µM] | DLD1 4% Abs IC50 [2] [µM] | DLD1 4% Abs IC50 [3] [µM] | NanoBRET Abs IC50 [4] [µM]
Ac-[αAllylPro]D[tBuAla][B5(5)]D[(CCpCO2H)TriAzDap]AAFL[PyrS2″][3Thi][Bta]Q-NH2 (staple 1-4, 4-11; not fully specified; printed as Ac-PL3-Asp-Npg-B5-Asp-[CCpCO2H]TriAzDap-Ala-Ala-Phe-Leu-PyrS2-3Thi-BztA-Gln-NH2) [I-2445] | 17.1 | 9.5 |  | 
Ac-[αAllylPro]D[tBuAla][B5(16)]DDAAFS[PyrS2″][Phe(2-Cl)][Bta]S-NH2 (staple 1-4, 4-11; not fully specified; printed as Ac-PL3-Asp-Npg-B5-Asp-Asp-Ala-Ala-Phe-Ser-PyrS2-2C1F-BztA-Ser-NH2) [I-1019: Ac-PL3-Asp-Npg-B5-Asp-Asp-Ala-Ala-Phe-Ser-PyrS2-2C1F-BztA-Ser-NH2] |  |  | 7.8 | 9.6
